Experimental findings from article PMC6925217, “PtomtAPX, a mitochondrial ascorbate peroxidase, plays an important role in maintaining the redox balance of Populus tomentosa Carr” (Scientific Reports, 2019) are described below.

Substrate in this series: O=C1O[C@H]([C@@H](O)CO)C(O)=C1O
Kind of series: steady-state Michaelis-Menten kinetics. The format is biochemical, Populus tomentosa. The note with it: fixed H2O2 concentration. From the text: steady-state Michaelis-Menten kinetics on PtosAPX

B1: PtosAPX (Populus tomentosa) (protein)
chain: ASDAAQLKSAREDIKELLKSKFCHPILVRLGWHDAGTYNKNIEEWAKRGGANGSLRFEIELKHAANAGLVDALKLIQPIKDKYSGVTYADLFQMASATAIEEAGGPKIPMKYGRVDVSVPDECPEEGRLPDAGPPKPADHLRGVFYRMGLDDKEIVALSGAHTLGRSRPERSGWGKPETKYTKNGPGAPGGQSWTAEWLKFDNSYFKDIKERKDEDLLVLPTDAALFEDPSFKVYAEKYAEDKEAFFKDYAEAHAKLSNLGAKFDPPEGIMLDGVAGEKFVAAKYSSGKD
notes: ORF minus N-terminal targeting peptide, pET30a, E. coli, purified; 39 kDa on SDS-PAGE; full ORF 1,086 bp; homologue of P. trichocarpa JGI 209946
What is called Km is the concentration of substrate that gives half-maximal velocity. As a reminder, the Vmax is the rate approached at saturating substrate. The kcat is the number of substrate molecules converted per active site and unit of time at saturation. One may read the kcat/Km as the turnover number divided by the Michaelis constant. B1: the Km is recorded as 4.30 ± 1.81 mM, the Vmax is 850 µM/min, the kcat amounted to 15000 s⁻¹ and the kcat/Km stood at 3.48e+06 M⁻¹ s⁻¹.
